In paper PMC6960015 (Nature cell biology, 2019):

Molecular target: Rabbit skeletal muscle LatB-actin (rabbit, UniProt P68135 1-377)
Test: BLI

B1: GST-ArhGAP12 ΔNΔP (568-791) (domain or fragment)
chain: QKKTKKNLKKFLTRRPTLQAVREKGYIKDQVFGSNLANLCQRENGTVPKFVKLCIEHVEEHGLDVDGIYRVSGNLAVIQKLRFAVNHDEKLDLNDSKWEDIHVITGALKMFFRELPEPLFTFNHFNDFVNAIKQEPRQRVTAVKDLIRQLPKPNQDTMQILFRHLKRVIENGEKNRMTYQSIAIVFGPTLLKPERETGNIAVHTVYQNQIVELILLELSTVFGR
Kd: 40.3 nM
